Results: PMC3841061

Target: P2Y1R-i3-YFP-long2/tail-HT (human) (UniProt P47900)
Test: FRET or BRET

Sequence of UniProt P47900 (P47900 whole entry): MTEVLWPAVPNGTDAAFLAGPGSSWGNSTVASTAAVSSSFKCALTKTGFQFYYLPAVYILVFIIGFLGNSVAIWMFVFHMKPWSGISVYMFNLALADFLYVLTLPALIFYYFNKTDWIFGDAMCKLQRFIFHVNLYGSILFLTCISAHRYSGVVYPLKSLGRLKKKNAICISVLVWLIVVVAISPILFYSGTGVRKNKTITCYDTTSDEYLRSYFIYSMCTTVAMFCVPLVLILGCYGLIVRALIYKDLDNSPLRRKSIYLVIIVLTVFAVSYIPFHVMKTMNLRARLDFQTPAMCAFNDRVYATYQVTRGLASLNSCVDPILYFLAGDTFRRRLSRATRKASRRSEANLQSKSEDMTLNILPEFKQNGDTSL

ΔnF/ICFP by ADPβS 10 μmol/L (agonist-induced increase in FRET): 0.014
Substance: Gαq-CFP (from UniProt P21279 1-359) (natural protein)
